Consider 3 proteins from paper PMC10127185, “Low complexity domains of the nucleocapsid protein of SARS-CoV-2 form amyloid fibrils” (Nature Communications, 2023).

Series [1] concerns the molecule itself. The experiment in a line: crystal structure; AALALL form 1: batch, peptide in water, acetonitrile and TFA about 45:45:10; needle crystals; 1.12 Å.
Series [2] concerns the molecule itself. The experiment in a line: crystal structure; GSQASS 100 mg/mL in water, hanging drop, 20 °C, 1.0 M Na,K tartrate, 0.2 M Li2SO4, Tris pH 7.0; needle crystals; 1.30 Å.
Series [3] deals with the molecule itself. The experiment in a line: crystal structure; GQTVTK 68 mg/mL in water, hanging drop, 20 °C, 2.0 M (NH4)2SO4, 0.1 M sodium HEPES pH 7.5, 2% v/v PEG 400; 1.10 Å.

B1: NCAP steric zipper segment 217AALALL222 (peptide)
peptide: AALALL
notes: Nucleocapsid protein (NCAP) of SARS-CoV-2, residues 217-222, within the central LCD; also called H-AALALL-OH
With B1, the binding result in series [1] is “binds”.

B2: NCAP steric zipper segment 179GSQASS184 (peptide)
peptide: GSQASS
notes: Nucleocapsid protein (NCAP) of SARS-CoV-2, residues 179-184, within the central LCD; non-phosphorylated peptide
Take B2: in series [2], the binding result is on record as “binds”.

B3: NCAP steric zipper segment 243GQTVTK248 (peptide)
peptide: GQTVTK
notes: Nucleocapsid protein (NCAP) of SARS-CoV-2, residues 243-248, within the central LCD
Turning to B3, the binding result in series [3] is on record as “binds”.
